Experimental data published in article doi:10.1101/2020.12.10.418392.

Target: T1, RLP42-GFP (A. thaliana) (UniProt Q9LJS0)
T1 sequence: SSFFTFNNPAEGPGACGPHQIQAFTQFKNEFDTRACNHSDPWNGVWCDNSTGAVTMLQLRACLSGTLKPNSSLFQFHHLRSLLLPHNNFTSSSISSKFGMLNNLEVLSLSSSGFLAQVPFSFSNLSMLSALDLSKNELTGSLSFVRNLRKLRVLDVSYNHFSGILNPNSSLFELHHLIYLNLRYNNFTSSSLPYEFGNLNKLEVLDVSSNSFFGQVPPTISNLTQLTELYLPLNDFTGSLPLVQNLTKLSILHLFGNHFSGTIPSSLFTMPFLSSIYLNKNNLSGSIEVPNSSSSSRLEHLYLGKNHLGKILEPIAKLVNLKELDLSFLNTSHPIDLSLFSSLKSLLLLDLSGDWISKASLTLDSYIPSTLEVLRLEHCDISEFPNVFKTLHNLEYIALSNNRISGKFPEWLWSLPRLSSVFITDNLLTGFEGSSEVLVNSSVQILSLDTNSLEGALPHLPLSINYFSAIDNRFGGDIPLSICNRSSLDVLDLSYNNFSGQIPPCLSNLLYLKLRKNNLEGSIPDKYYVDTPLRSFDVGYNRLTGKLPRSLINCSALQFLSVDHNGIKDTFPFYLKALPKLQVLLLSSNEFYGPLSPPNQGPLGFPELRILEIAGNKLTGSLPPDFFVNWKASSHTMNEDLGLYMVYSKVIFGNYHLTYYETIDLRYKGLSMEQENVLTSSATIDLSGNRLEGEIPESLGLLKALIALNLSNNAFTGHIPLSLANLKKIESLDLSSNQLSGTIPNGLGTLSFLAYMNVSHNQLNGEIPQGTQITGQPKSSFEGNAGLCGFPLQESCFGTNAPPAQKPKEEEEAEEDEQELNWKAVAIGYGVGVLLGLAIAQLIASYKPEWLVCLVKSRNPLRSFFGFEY

Q: With AKNTDGFDL [Oom-pg9] as the binder, how does the EC50 of ethylene production in A. thaliana Col-0 leaves read?
A: The EC50 of ethylene production in A. thaliana Col-0 leaves was 1300 nM.
